# Measurements taken from patent publication US20210147486A1 (VIB VZW, published 2021).
# Where no end group is shown, it is not given here. The star is where a group is joined. NH(CH2)5NH2 = NCCCCCN*
# B1: E. coli CsgF (mature) with a C-terminal 6x histidine tag (other)
# chain: GTMTFQFRNPNFGGNPNNGAFLLNSAQAQNSYKDPSYNDDFGIETPSALDNFTQAIQSQILGGLLSNINTGKPGRMVTNDYIVDIANRDGQLQLNVTDRKTGQTSTIQVSGLQNNSTDFHHHHHH
# notes: a start Met is not mentioned; 9:9 stoichiometry with CsgG in the cryoEM structure; also called CsgF-His
# B2: CsgF-(1-45) synthetic peptide (peptide)
# peptide: GTMTFQFRNPNFGGNPNNGAFLLNSAQAQNSYKDPSYNDDFGIET
# B3: CsgF-N17S-(1-35) peptide (peptide)
# peptide: GTMTFQFRNPNFGGNPSNGAFLLNSAQAQNSYKDP
# notes: also called CsgF-N175-(1-35)
# B4: CsgF-(1-30) synthetic peptide (peptide)
# peptide: GTMTFQFRNPNFGGNPNNGAFLLNSAQAQN
# B5: CsgF-(1-29) synthetic peptide (peptide)
# peptide: GTMTFQFRNPNFGGNPNNGAFLLNSAQAQ
# B6: CsgF 20:64 fragment with C-terminal 6xHis (from pNA100) (peptide)
# peptide: GTMTFQFRNPNFGGNPNNGAFLLNSAQAQNSYKDPSYNDDFGIETHHHHHH
# notes: also called CsgF 1-64; CsgF fragment 1-64
# B7: Alexa 594-labelled CsgF peptide corresponding to the first 34 residues of mature CsgF (peptide)
# peptide: GTMTFQFRNPNFGGNPNNGAFLLNSAQAQNSYKD-{NH(CH2)5NH2-Alexa594}
# notes: Synthetic peptide; also called CsgF N-terminal peptide; FCP
# B8: CsgF truncated at position 35 by TEV cleavage, with ENLYFQ left at the C-terminus (peptide)
# peptide: GTMTFQFRNPNFGGNPNNGAFLLNSAQAQNSYKDPENLYFQ
# notes: The text calls it 42 amino acids long; 35 + 6 gives 41; also called CsgF truncated protein
# B9: CsgF N17S truncated at position 35 by TEV cleavage, with ENLYFQ left at the C-terminus (peptide)
# peptide: GTMTFQFRNPNFGGNPSNGAFLLNSAQAQNSYKDPENLYFQ
# B10: CsgF-N17V-(1-35) peptide (peptide)
# peptide: GTMTFQFRNPNFGGNPVNGAFLLNSAQAQNSYKDP
# How the values were obtained:
# [1] = molecular target: T1, E. coli CsgG (wild type) fused C-terminally to a Strep-II tag (Escherichia coli, UniProt P0AEA2 16-277, N-terminal Cys of mature CsgG lipidated (N-terminal lipidation of CsgG)); assay: co-expression in E. coli; His then Strep tandem affinity purification; SDS-PAGE
# T1 construct: Nonameric pore; dimers of nonamers (18-mer) also seen; also called CsgG-Strep; CsgG pore; not shown: C-terminal Strep-II tag
# T1 sequence: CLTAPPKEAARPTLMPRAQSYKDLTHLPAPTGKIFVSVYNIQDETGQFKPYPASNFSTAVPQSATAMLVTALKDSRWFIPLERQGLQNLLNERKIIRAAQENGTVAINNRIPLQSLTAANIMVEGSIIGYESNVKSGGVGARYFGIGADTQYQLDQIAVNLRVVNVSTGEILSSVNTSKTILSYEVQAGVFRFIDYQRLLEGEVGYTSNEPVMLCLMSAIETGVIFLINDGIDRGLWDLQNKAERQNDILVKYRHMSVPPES
# [2] = molecular target: T2, CsgG Y51A/N55V/F56Q/N91R/K94Q/R97W-del(V105-I107) pore containing the C terminal strep tag (Escherichia coli, UniProt P0AEA2 16-277); assay: reconstitution of purified pore with synthetic peptide; SDS-PAGE after heating
# T2 construct: also called Y51A/F56Q/N55V/N91R/K94Q/R97W-del(V105-I107); not shown: C-terminal Strep tag
# T2 chain: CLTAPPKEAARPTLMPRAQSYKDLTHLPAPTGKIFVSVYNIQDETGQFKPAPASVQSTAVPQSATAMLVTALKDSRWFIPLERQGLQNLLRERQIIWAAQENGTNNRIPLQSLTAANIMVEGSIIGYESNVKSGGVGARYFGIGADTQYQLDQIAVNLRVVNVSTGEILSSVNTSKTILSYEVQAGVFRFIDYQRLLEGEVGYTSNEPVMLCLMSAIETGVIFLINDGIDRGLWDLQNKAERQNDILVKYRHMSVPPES
# [3] = molecular target: T2, CsgG …; assay: complex made by incubating pore and peptide; DNA translocation current recording
# [4] = molecular target: T3, CsgG Y51T/N55V/F56Q/N91R/K94Q/R97W-del(V105-I107) pore containing the C terminal strep tag (Escherichia coli, UniProt P0AEA2 16-277); assay: panel B; complex made by incubating pore and peptide; DNA translocation current recording
# T3 construct: not shown: C-terminal Strep tag
# T3 chain: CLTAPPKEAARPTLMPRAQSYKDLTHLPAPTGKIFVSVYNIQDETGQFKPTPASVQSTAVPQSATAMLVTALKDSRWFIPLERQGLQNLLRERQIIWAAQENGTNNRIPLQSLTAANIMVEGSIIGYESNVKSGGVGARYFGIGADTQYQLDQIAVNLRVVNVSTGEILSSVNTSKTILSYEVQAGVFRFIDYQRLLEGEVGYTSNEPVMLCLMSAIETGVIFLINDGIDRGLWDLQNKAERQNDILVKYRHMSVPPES
# [5] = molecular target: T4, CsgG Y51A/N55I/F56Q/N91R/K94Q/R97W-del(V105-I107) pore containing the C terminal strep tag (Escherichia coli, UniProt P0AEA2 16-277); assay: panel C; complex made by incubating pore and peptide; DNA translocation current recording
# T4 construct: N551 read as N55I; also called Y51A/N551/F56Q/N91R/K94Q/R97W-del(V105-I107) (so in the source); not shown: C-terminal Strep tag
# T4 chain: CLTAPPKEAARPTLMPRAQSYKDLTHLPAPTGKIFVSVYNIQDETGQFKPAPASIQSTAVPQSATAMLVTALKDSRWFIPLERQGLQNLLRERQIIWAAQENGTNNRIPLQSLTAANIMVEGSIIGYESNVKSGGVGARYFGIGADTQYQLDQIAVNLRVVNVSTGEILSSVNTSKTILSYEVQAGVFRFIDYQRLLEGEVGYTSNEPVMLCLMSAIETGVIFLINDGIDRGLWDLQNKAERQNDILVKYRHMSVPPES
# [6] = molecular target: T5, CsgG Y51A/F56A/N91R/K94Q/R97W-del(V105-I107) pore containing the C terminal strep tag (Escherichia coli, UniProt P0AEA2 16-277); assay: panel D; complex made by incubating pore and peptide; DNA translocation current recording
# T5 construct: not shown: C-terminal Strep tag
# T5 chain: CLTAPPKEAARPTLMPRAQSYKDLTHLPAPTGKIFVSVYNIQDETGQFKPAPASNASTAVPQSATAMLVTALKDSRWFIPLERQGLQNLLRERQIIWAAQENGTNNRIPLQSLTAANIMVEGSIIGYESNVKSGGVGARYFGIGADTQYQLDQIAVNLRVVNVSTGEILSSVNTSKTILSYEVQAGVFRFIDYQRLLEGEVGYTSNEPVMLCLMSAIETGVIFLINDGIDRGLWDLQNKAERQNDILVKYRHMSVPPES
# [7] = molecular target: T6, CsgG Y51A/F56I/N91R/K94Q/R97W-del(V105-I107) pore containing the C terminal strep tag (Escherichia coli, UniProt P0AEA2 16-277); assay: panel E; complex made by incubating pore and peptide; DNA translocation current recording
# T6 construct: F561 read as F56I; also called Y51A/F561/N91R/K94Q/R97W-del(V105-I107) (so in the source); not shown: C-terminal Strep tag
# T6 chain: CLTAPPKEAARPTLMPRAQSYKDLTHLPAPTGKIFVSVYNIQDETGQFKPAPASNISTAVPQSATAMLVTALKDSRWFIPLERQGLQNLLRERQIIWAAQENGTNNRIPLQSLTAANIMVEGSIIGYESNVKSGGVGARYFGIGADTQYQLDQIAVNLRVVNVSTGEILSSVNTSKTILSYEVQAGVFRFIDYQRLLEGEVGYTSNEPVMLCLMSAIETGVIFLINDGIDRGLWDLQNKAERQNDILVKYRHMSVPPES
# [8] = molecular target: T7, CsgG Y51S/N55V/F56Q/N91R/K94Q/R97W-del(V105-I107) pore containing the C terminal strep tag (Escherichia coli, UniProt P0AEA2 16-277); assay: panel F; complex made by incubating pore and peptide; DNA translocation current recording
# T7 construct: not shown: C-terminal Strep tag
# T7 chain: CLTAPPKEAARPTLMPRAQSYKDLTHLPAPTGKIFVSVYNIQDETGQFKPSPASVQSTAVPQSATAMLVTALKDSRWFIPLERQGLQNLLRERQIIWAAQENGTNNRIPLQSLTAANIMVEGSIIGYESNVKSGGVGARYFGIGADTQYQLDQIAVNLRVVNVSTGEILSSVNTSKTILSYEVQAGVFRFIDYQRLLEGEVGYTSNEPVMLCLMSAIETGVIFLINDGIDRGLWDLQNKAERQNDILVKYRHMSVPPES
# [9] = molecular target: T2, CsgG …; assay: reconstitution of purified pore with synthetic peptide; electrophysiology
# [10] = molecular target: T1, E. coli CsgG (wild type) fused …; assay: co-expression, Strep affinity purification, anti-His dot blot
# [11] = molecular target: T1, E. coli CsgG (wild type) fused …; assay: in vitro reconstitution 2:1 peptide:CsgG, StrepTactin pull down, native PAGE fluorescence
# [12] = molecular target: T8, CsgG Y51A/F56Q/K94Q/R97W/R192D-del(V105-I107), Strep-tagged (Escherichia coli, UniProt P0AEA2 16-277); assay: as above
# T8 construct: also called CsgG mutant with altered constriction; not shown: C-terminal Strep tag
# T8 chain: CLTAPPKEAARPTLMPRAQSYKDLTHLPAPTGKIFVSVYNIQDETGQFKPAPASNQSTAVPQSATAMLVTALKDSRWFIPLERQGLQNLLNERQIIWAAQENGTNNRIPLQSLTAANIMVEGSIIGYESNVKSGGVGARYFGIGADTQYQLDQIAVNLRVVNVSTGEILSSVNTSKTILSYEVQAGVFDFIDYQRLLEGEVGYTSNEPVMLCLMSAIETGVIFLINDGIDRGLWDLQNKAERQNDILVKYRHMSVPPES
# [13] = molecular target: T9, CsgG Y51A/F56Q/N91R/K94Q/R97W-del(V105-I107) pore containing the C terminal strep tag (Escherichia coli, UniProt P0AEA2 16-277); assay: co-expression, purification, TEV cleavage; DNA translocation current recording
# T9 construct: not shown: C-terminal Strep tag
# T9 chain: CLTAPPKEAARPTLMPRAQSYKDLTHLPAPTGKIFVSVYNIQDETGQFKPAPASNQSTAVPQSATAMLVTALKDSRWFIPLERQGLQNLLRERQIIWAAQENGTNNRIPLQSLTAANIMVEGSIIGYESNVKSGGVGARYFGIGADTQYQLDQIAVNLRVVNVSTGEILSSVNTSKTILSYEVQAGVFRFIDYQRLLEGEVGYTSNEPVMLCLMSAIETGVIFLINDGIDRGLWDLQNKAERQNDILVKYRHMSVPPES
binder,measurement,setting,value
B1,binding result,[1],binds
B2,binding result,[2],binds
B3,binding result,[3],binds
same,binding result,[4],binds
same,binding result,[5],binds
same,binding result,[6],binds
same,binding result,[7],binds
same,binding result,[8],binds
B4,binding result,[9],binds
B5,binding result,[9],binds
B6,binding result,[10],binds
B7,binding result,[11],binds
same,binding result,[12],binds
B8,binding result,[13],binds
B9,binding result,[13],binds
B10,binding result,[3],binds
